Reference: FireProtDB (doi:10.1021/bi034371e)
“And” between values parts separate entries of the source, which are not always exact repeats. Identical values can stand only once.

Settings: Spinacia oleracea, pH 7, Thermal, whole UniProt chain shown
[1] = DSC, potassium phosphate 10 mM, reversible: No
[2] = DSC, potassium phosphate 10 mM, reversible: Yes, 90%
[3] = DSC, potassium phosphate 10 mM, reversible: Yes
[4] = NMR, phosphate 10 mM, reversible: No

B1: Plastocyanin, chloroplastic wild type, P00289 (protein)
chain: MATVASSAAVAVPSFTGLKASGSIKPTTAKIIPTTTAVPRLSVKASLKNVGAAVVATAAAGLLAGNAMAVEVLLGGGDGSLAFLPGDFSVASGEEIVFKNNAGFPHNVVFDEDEIPSGVDAAKISMSEEDLLNAPGETYKVTLTEKGTYKFYCSPHQGAGMVGKVTVN
- Tm [1]: 67.8 °C and 67.2 °C
- unfolding enthalpy (van 't Hoff) [1]: 84.6 kcal/mol and 84.1 kcal/mol
- Tm [2]: 71 °C
- unfolding enthalpy (van 't Hoff) [2]: 85.6 kcal/mol
- Tm [3]: 71.2 °C
- unfolding enthalpy (calorimetric) [3]: 118 kcal/mol
- unfolding enthalpy (van 't Hoff) [3]: 82 kcal/mol
- Tm [4]: 67.9 °C
- unfolding enthalpy (van 't Hoff) [4]: 115 kcal/mol
